Assay results as given in patent US20150166671A1 (CHILDREN S MEDICAL CENTER, published 2015).

T1: KRM2N-FLAG-6xHIS (human, UniProt Q8NCW0 26-364)
T1 construct: extracellular domain; Negative control; also called human Kremen2; not shown: carboxyl FLAG tag and 6xHIS tag
T1 sequence (looked up): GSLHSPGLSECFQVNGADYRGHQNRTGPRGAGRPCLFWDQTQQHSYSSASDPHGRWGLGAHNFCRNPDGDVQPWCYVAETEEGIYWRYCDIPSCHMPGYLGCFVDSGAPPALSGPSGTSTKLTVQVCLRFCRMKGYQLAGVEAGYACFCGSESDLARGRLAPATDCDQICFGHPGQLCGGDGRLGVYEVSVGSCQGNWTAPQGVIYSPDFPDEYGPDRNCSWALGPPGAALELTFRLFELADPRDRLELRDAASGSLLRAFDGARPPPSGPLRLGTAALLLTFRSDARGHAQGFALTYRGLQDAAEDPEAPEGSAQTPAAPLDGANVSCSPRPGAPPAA

T2: recombinant human WNT3A, P56704
T2 chain: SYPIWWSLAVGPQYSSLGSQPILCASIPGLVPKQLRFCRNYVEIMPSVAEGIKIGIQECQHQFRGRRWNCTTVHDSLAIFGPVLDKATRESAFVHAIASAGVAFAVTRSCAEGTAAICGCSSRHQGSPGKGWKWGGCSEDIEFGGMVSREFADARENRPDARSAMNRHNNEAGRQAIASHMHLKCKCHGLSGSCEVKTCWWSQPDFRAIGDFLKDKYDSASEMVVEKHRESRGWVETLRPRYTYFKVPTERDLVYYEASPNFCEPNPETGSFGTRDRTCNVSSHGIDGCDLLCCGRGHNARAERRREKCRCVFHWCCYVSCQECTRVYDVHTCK


Key:
KRM2N-FLAG-6xHIS = target: T1, KRM2N-FLAG-6xHIS; assay: co-immunoprecipitation from CM with an anti-FLAG antibody, Western blotting
Description: (Y-BB) TIKI2, but not KRM2, interacts with Wnt3a, Xwnt8-Myc, Wnt5a, and Xwnt11. Wnt proteins were each co-expressed with KRM2N or TIKI2N (FLAG tagged) and CM were subjected to immunoprecipitation with an anti-FLAG antibody and Western blotting with indicated antibodies.
The rabbit polyclonal anti-LRP6 antibody has been described (Tamai et al., 2004). Other antibodies were used according to manufacturer's instructions. From Cell Signaling: the rabbit monoclonal anti-Wnt3a (#2721, 1:1000), anti-HA (#3724, 1:1000), anti-Wnt5a (#2530, 1:1000) and anti-FLAG (#8146, 1:2000), from Santa Cruz: anti-Dv12 (sc-13974, 1:1000), anti-HA (sc-7392, 1:1000), and anti-Myc (sc-40, 1:500), from BD Transduction Laboratories: anti-beta-catenin (610154, 1:2000), From Hybridoma Bank: anti-tubulin (E7, 1:5000). Anti-FLAG M2 (A2220) and anti-HA (A2095) Affinity gels are from Sigma Immunoblotting was performed as previously described (MacDonald et al., 2008). For indirect immunofluorescence experiments, HeLa cells were plated on glass coverslips in 12-well plates and transfected with HA*Tiki1 expression construct. To visualize Tiki1 proteins on the cell surface, live cells were incubated with the anti-HA antibody in the culture medium for 30 min. The coverslip was washed with PBS and fixed with 4% paraformaldehyde in PBS for 10 min at room temperature. […]

[1] = target: T2, recombinant human WNT3A, P56704

Binder	binding result (KRM2N-FLAG-6xHIS)	in vitro cleavage, mass spectrometry [1]	in vitro cleavage of purified HA-Wnt3a by purified protein (Western blotting) (HA-Wnt3a)
TIKI2N-FLAG-6xHIS (protein) RPQPPDGGQCRPPGSQRDLNSFLWTIRRDPPAYLFGTIHVPYTRVWDFIPDNSKAAFQASTRVYFELDLTDPYTISALASCQLLPHGENLQDVLPHELYWRLKRHLDYVKLMMPSWMTPAQRGKGLYADYLFNAIAGNWERKRPVWVMLMVNSLTERDVRFRGVPVLDLYLAQQAEKMKKTTGAVEQVEEQCHPLNNGLNFSQVLFALNQTLLQQESVRAGSLQASYTTEDLIKHYNCGDLSAVIFNHDTSQLPNFINTTLPPHEQVTAQEIDSYFRQELIYKRNERMGKRVMALLRENEDKICFFAFGAGHFLGNNTVIDILRQAGLEVDHTPAGQAIHSPAPQSPAPSPEGTSTSPAPVTPAAAVPEAPSVTPTAPPEDEDPALSPHLLLPDSLSQLEEFGRQRKWHKRQSTHQRPRQFNDLWVRIEDSTTASPPPLPLQPTHSSGTAKPPFQLSDQLQQQDPPG		MS analyses of recombinant human WNT3A cleaved by TIKI2N in vitro indicated cleavage at identical (major and minor) amino terminal sites as observed in cells	upon in vitro incubation with purified HA-Wnt3a, triggered Wnt3a cleavage and the disappearance of the HA epitope
TIKI2NΔ-FLAG-6xHIS (protein) RPQPPDGGQCRPPGSQRDLNSFLWTIRRDPPAYLFGTIHVPYTRVWDFIPDNSKAAFQASTRVYFELDLTDPYTISALASCQLLPHGENLQDVLPHELYWRLKRHLDYVKLMMPSWMTPAQRGKGLYADYLFNAIAGNWERKRPVWVMLMVNSLTERDVRFRGVPVLDLYLAQQAEKMKKTTGAVEQVEEQCHPLNNGLNFSQVLFALNQTLLQQESVRAGSLQASYTTEDLIKHYNCGDLSAVIFNHDTSQLPNFINTTLPPHEQVTAQEIDSYFRQELIYKRNERMGKRVMALLRENEDKICFFAFGAGHFLGNNTVIDILRQAGLEVDHTPAGQAIHSPAPQSPAPSPEGTSTSPAPVTPAAAVPEAPSVTPTAPPEDEDPALSPHLLLPDSLSQLEEFGRQRKWHKRQSTHQRPRQFNDLWVRIEDSTTASPPPLPLQPTHSSGTAKPPFQLSDQLQQQDPPG			failed to do so in the in vitro assay

Continued, in another order:

binding result (KRM2N-FLAG-6xHIS)	Binder	in vitro cleavage, mass spectrometry [1]	in vitro cleavage of purified HA-Wnt3a by purified protein (Western blotting) (HA-Wnt3a)
no binding	Xwnt8-Myc (ligand, also called Xenopus wnt8; not shown: Myc tag) AWSVNNFLMTGPKAYLTYSASVAVGAQNGIEECKYQFAWERWNCPESTLQLATHNGLRSATRETSFVHAISSAGVMYTLTRNCSMGDFDNCGCDDSRNGRIGGRGWVWGGCSDNAEFGERISKLFVDGLETGQDARALMNLHNNEAGRLAVKETMKRTCKCHGISGSCSIQTCWLQLAEFRDIGNHLKIKHDQALKLEMDKRKMRSGNSADNRGAIADAFSSVAGSELIFLEDSPDYCLKNISLGLQGTEGRECLQSGKNLSQWERRSCKRLCTDCGLRVEEKKTEIISSCNCKFHWCCTVKCEQCKQVVIKHFCARRERDSNMLNTKRKNRGHRR		
no binding	Xwnt11 (ligand, Xenopus, UniProt P49893 23-353, looked up) IQWLGLTVNGSRVAWNESEHCRLLDGLVPDQSQLCKRNLELMQSVVNAAKQTKLTCQMTLSDMRWNCSSVENAPSFTPDLSKGTRESAFVYALASATLSHTIARACASGELPTCSCGATPAEVPGTGFRWGGCGDNLHYGLNMGSAFVDAPMKSSKSAGTQATKIMNLHNNAVGRQVLMDSLETKCKCHGVSGSCSVKTCWKGLQDLPHIANELKSKYLGATKVIHRQTGTRRQLVPRELDIRPVRESELVYLVSSPDYCTKNPKLGSYGTQDRLCNKTSVGSDSCNLMCCGRGYNAYTETIVERCQCKYHWCCYVMCKKCERTVERYVCK		
